Values quoted from earlier work as cited in US5993783A, “Method and apparatus for pulmonary administration of dry powder α1-antitrypsin” (Inhale Therapeutic Systems, priority 1998, dated 1999).

Details: similar sheep model, Smith et al. 1989

α1AT: α1-antitrypsin, a protease inhibitor with inhibitory activity toward neutrophil elastase
rate of clearance of α1AT out of the lungs, % of the total rate of α1AT transported out of the lung: 16.1±10.4%
